Test results as given in patent publication US6953577B2, “Human methionine aminopeptidase type 3” (Pharmacia Corporation, priority 1999, dated 2005).

How the values were obtained:
[1] = substrate: CSCC[C@H](N)C(=O)N[C@@H](C)C(=O)N[C@@H](CO)C(=O)O; assay: purified protein, by the assay type; settings: other: hydrolysis of methionine from MAS peptide substrate; pH 7.5
Experimental: (§1) Hydrogen peroxide, produced by the L-amino acid oxidase reaction, was measured by monitoring the formation of resorufin from Amplex Red in a reaction catalyzed by of horseradish peroxidase. […] The reaction was performed in a 96-well plate format at ambient temperature using the following assay buffer: 20 mM HEPES-Na pH 7.5, 100 mM NaCl, 0.1 mM CoCl2 containing 100 μM Amplex Red, 0.15 U/ml L-amino acid oxidase, 0.5 U/ml horseradish peroxidase.
(§2) The IC50 values were determined under conditions in which enzyme concentration and reaction time were linear.

[2] = substrate: CSCC[C@H](N)C(=O)N[C@@H](C)C(=O)N[C@@H](CO)C(=O)O; assay: Methionine aminopeptidase activity assay (methionine release from tripeptide, coupled L-amino acid oxidase/Amplex Red); assay type: biochemical, human; settings: other: hydrolysis of methionine from MAS peptide substrate; pH 7.5
Experimental: as §1, §2

B1: recombinant human MetAP-2 (Homo sapiens) (protein)
chain: MAGVEEVAASGSHLNGDLDPDDREEGAASTAEEAAKKKRRKKKKSKGPSAAGEQEPDKESGASVDEVARQLERSALEDKERDEDDEDGDGDGDGATGKKKKKKKKKRGPKVQTDPPSVPICDLYPNGVFPKGQECEYPPTQDGRTAAWRTTSEEKKALDQASEEIWNDFREAAEAHRQVRKYVMSWIKPGMTMIEICEKLEDCSRKLIKENGLNAGLAFPTGCSLNNCAAHYTPNAGDTTVLQYDDICKIDFGTHISGRIIDCAFTVTFNPKYDTLLKAVKDATNTGIKCAGIDVRLCDVGEAIQEVMESYEVEIDGKTYQVKPIRNLNGHSIGQYRIHAGKTVPIVKGGEATRMEEGEVYAIETFGSTGKGVVHDDMECSHYMKNFDVGHVPIRLPRTKHLLNVINENFGTLAFCRRWLDRLGESKYLMALKNLCDLGIVDPYPPLCDIKGSYTAQFEHTILLRPTCKEVVSRGDDY
- Km [1]: 300 µM
- kcat [1]: 2.3 s⁻¹

B2: recombinant human MetAP-3 (Homo sapiens) (protein)
chain: SSPLNHIYLHKQSSSQQRRNFFFRRQRDISHSIVLPAAVSSAHPVPKHIKKPDYVTTGIVPDWGDSIEVKNEDQIQGLHQACQLARHVLLLAGKSLKVDMTTEEIDALVHREIISHNAYPSPLGYGGFPKSVCTSVNNVLCHGIPDSRPLQDGDIINIDVTVYYNGYHGDTSETFLVGNVDECGKKLVEVARRCRDEAIAACRAGAPFSVIGNTISHITHQNGFQVCPHFVGHGIGSYFHGHPEIWHHANDSDLPMEEGMAFTIEPIITEGSPEFKVLEDAWTVVSLDNQRSAQFEHTVLITSRGAQILTKLPHEA
notes: The coding region of hMetAP-3 was also cloned into the EcoRI/HindIII sites of the pET43a vector and expressed as a fusion protein; NusA (N, cleaved yes); 6xHis (N, cleaved yes); made in house; host or cells: E. coli Tuner (DE3)plysS, pET43a
- Km [2]: 600 µM
- kcat [2]: 0.06 s⁻¹
